The source of these data is a protein production outcome set (Wang et al. 2014).

The series can be described thus: label from the status in PepcDB records.

In the case of “MDELHPGYLVGLLVLLVACSAFFSCVETALLNLDRYRLRLQAKQGLRGARRSSWLLLHDDRLRGTLLFGRTLVNVSAAALASWAALRHWGVIGLAVAIPGMTLLLLLFGALLPRRYGALRSERVALPLSLPLLILQRLCWPLLWLLTLLSNALLRLLGVAAAEQDDSGRSRDEEALHPADNPQASEVNRHDMLLGLLDLEKVTVNDLMIPRNEIEGIDLDDELEVIVEQLRTTSHTRLPVYRDDVNQIEGVVHMRQIARLLTQGRLTKENLRQACMEPYFVPESTPLSTQLVNFQKEKRRIGVVVDEYGEVIGIVTLEDILEEIVGDFNDLDSLDNPDIQAQEDGSFVIDGSANLRELNKSLGWQLPCDGPKTLNGLVTEALEQIPDCAVCLRIGPYCLEIQQSAENRVKSVRAWHPRALTPLVESDASV”, the protein production result is recorded as “failed”. For “MDELRFAAVGLNHNHIYGQVNCLLRAGARLAGFHEKDDALAAEFSAVYADARRIATAEEILEDENIGLIVSAAVSSERAELAIRAMQHGKDVLVDKPGMTSFDQLAKLRRVQAETGRIFSILYSEHFESPATVKAGELVAAGAIGEVVHIVGLGPHRLRRETRPDWFFRRADYGGILTDIASHQCEQFLFFTGVNDATVLSASVGNQSVPDAPELQDTGSIHLSTGRTTGMIHVNWLTPEGMPTWGDGRLFIVGTSGTIEVRKTVDLAGREGGNHLFLADRNGVEHIDCSRVDLPFGRQFLADIRDRTETAMPQERCFKAMELALQAQAIAEQNGDRN” the value was “not failed”; for “MDEPVRTFPITWLADYVMEDEGFSSREDINDLLMKEGFPLEPDLFMLTEIARKGIIEVTSSRDYSPEYALFLNLTFRDGSALNSRKVKVAWSEVCSPKQEGGLGLRSIAEANKVCVLKLIWRILSARRSLWVELVKKYLIRRGSFWLVKENTTCGSWIWKKILKYRDTAKSFYRVEVRNGEASSFGFDRWSEMGCLYDRLGARGCIDLGSPMTATVGEVMAGARRRKYRVAILNQVENEIVKQKLIRSNETDVALWNGKHDHYRKEFHTKETWLQIRTAKLLMENYNGIWFKHSTPKYSLITWLVQKNRVATGDKLIKWNPQVTPNCILCQHTLETWDHLFFMCPYSFQVWTKLAKGILHASFTANWTETLKLIHDNRLSKTKCFIVGYIFQNAIHSL”, “failed”.

“MDESAALRAFQDALRTQRPEFGQFFLARLLGLDISYPDGQCLIVFEPQDFLFNPQGSLHGGIIATVMDISMGHLLNHVQGAGLTLEMKTQYLKAVRQGTVYCRGEFLQRGRSVSFLKSTLTDAQGEPLAMATSTWKALSPARAPGVDAAAR”: the protein production result was “failed”.

Take “MDFAYSPKVQELRERVSAFMEAHVYPAEAVFERQVAEGDRWQPTAIMEELKAKAKAEGLWNLFLPESEYGAGLANHEYAPLAEIMGRSLIGPEPFNCAAPDTGNMEVLVRYGSEEQKRTWLEPLLSGEIRSAFAMTEPGVASSDATNMEARAERQGDDWVINGRKWWTSGACDPRCKILIFMGLTNPDAPRHQQHSMILVPVDTPGVKILRPLPVFGYDDAPHGHAEVLFENVRVPYENVILGEGRGFEIAQGRLGPGRIHHCMRSIGMAERALELMCKRAVSRTAFGKPLARLGGNIDHIADSRMEINMARLLTLQAAYMMDTVGNKIAQSEIAQIKVVAPNVALKVIDRAIQMHGGAGVSNDFPLAYWYAMQRTLRLADGPDEVHRAAIGKFELGKYVPREML”: the protein production result is reported as “failed”. For “MDFGKPNQVTVNYLDENKTPIAPSLYLSGLFNEAYNVPMKKIKGYTLLKYDSEILGVFTESPQTINIIYQKKAPEQALEHHHHHH” the value was “failed”; for “MDFGSFLKAPEIKVKIVTYRDIFQDKAMIENRFGEEYRDRSAVIKMDSADLKQLNVKKGETVILKNSFGTVVVKAEESGYEPSHRGIAYMPKSPWSNMLVSDETGGTGIPKFKDISVTVTSAKGQKLTELGL”, “not failed”. Take “MDFVEFWSQLIRNVRWRRACVLALIVLTLYLASSMMSIILLTFIFTFLVTRLVRAVRRWVKIPPTIIVLVVYALVILGIYFAVSIYLPQLIKQTFLTFESVYRFYQNPSHDTNQVLTWVTSYFQESDILKQLKGGISVVFQYITNIGNMGLTFFLSFILSFFFTIEDHQMRVFTKRFLTSTFGWFFQDVHFFAKKFVNSFGVVLEAQFLIAIVNTVITVTFMAILKMPQLISLGLMIFILSLIPVAGVIISVVPLSLIAYSVGGLRYVVYMLLMILVVHALEAYVLNPKFMSSRTELPIFYTFVVLLVSERLFGVWGLIVGVPIFNFILDIIGVKPVHRPRPNINLKKTITFHPDSENKR”: the protein production entry is on record as “failed”. Turning to “MDFVIRRATAEEYDTLGEITAQAYLRDGLLDFGESDSYLDELRDVAKRAAAAEVLVAVADDAVLGGATFVPSGGPMADIARPGEAEIRMLAVAREARGRGAGEALVRACADRARAVPGCTGVVLSTQAAMRTAHRLYERLGFVRTPDRDWNPLPELDDIMLLTYELTL”, the protein production result was “failed”. For “MDGEAFEISLLDGEEDRFGGTVVNLMEVESMTIGDFDSKLDVSLKAWKDQGKKGIWIKLPSELSSLVDTAIKKGFTYHHAENEYVMLTFWLPEPPSTLPCNASHRIGIGAFVLNKNGEMLVVQENSGYFKDKNVWKVPTGTIKEGESIWAGAVREVKEETDIDAEFVEVLSFMESHQAVWQRKTDIFFVCELEARTFEIQKQDSEIHAAKWMPVEEYVNQPYHNKEGNEMFKLIANICLKRSREKYTGFVLTTNSAKKSLYCSVDHANLLKETADQASTSLSD” the value was “failed”; for “MDGIFAGIICNQANRCLTWTSQQLFSEKISGAEGTKLDDEFLDMERKIDVTNKVVAEILSKTTEYLQPNPAYRAKLGMLNTVSKIRGQVKTTGYPQTEGLLGDCMLKYGKELGEDSTFGNALIEVGESMKLMAEVKDSLDINVKQTFIDPLQLLQDKDLKEIGHHLKKLEGRRLDYDYKKKRVGKIPDEEVRQAVEKFEESKELAERSMFNFLENDVEQVSQLAVFIEAALDYHRQSTEILQELQSKLQMRISAASSVPRREYKPRPVKRSSSELNGVSTTSVVKTTGSNIPMDQPCCRGLYDFEPENQGELGFKEGDIITLTNQIDENWYEGMIHGESGFFPINYVEVIVPLPQ”, “not failed”. For “MDGKRVWLSDDELTRFIEQAETPHQRLAFLLAGRVGLRRSEIIEVCPQDLVDGPTGDHIRVWESYAKRDKYREPPVPQEVVTIAETLAYQQDDDEPLLDVAGSTVYRWVRRAADELEEETGDRGWQYLDVHDLRRTWGTYLLEQGVIPSVVMSFGGWEDWDTFRKHYLGLEHHHHHH” the value was “failed”.

For “MDGLFEFCQLSTGGSVAGAVKLNRQQTDMAVNWAGGLHHAKKYEASGFCYVNDIVLAILELLKYHQRVLYIDIDIHHGDGVEEAFYTTDRVMTVSFHKYGEYFPGTGDLRDIGAGKGKYYAVNFPMCDGIDDESYGQIFKPIISKVMEMYQPSAVVLQCGADSLSGDRLGCFNLTVKGHAKCVEVVKTFNLPLLMLGGGGYTIRNVARCWTYETAVALDCEIPNELPYNDYFEYFGPDFKLHISPSNMTNQNTPEYMEKIKQRLFENLRMLPHAPGVQMQAIPEDAVHEDSGDEDGEDPDKRISIRASDKRIACDLEHHHHHH”, the protein production result is “not failed”. Take “MDGSPARPVPLVPDAAPAAPGRGRLAALTLLTLGFFAANSLLARAALRPGLADPATFTAIRLASGAAALGGLALASRRARPRGGSAGSALALFAYAAAFSLAYRRIDAGPGAFLLFFAVQASMIGWSVLRGARPTRRQWAGLAVALAGLGWLTLPGAHAPDARGAALMLAAGVAWGAYTLRGRGVRDPAGATAANFALAVPLALCLVIASAGTLHLTARGAALAAASGAVASGVGYVLWYTVVPALGAARAAAVQLAVPAMVPLAAAGLLGEAITPRLLAAGTAILAGVALAIAPAARGGAFTRALSSRAGSAVERPPR”: the protein production result is listed as “failed”. For “MDHLKHLQQLQNIERIVLSGIVLANHKIEEVHSVLEPSDFYYPPNGLFFEIALKLHEEDCPIDENFIRQKMPKDKQIKEEDLVAIFAASPIDNIEAYVEEIKNASIKRKLFGLANTIREQALESAQKSSDILGAVEREVYALLNGSTIEGFRNIKEVLESAMDLITENQRKGSLEVTGIPTGFVQLDNYTSGFNKGSLVIIGARPSMGKTSLMMNMVLSALNDDRGVAVFSLEMSAEQLALRALSDLTSINMHDLESGRLDDDQWENLAKCFDHLSQKKLFFYDKSYVRIEQIRLQLRKLKSQHKELGIAFIDYLQLMSGSKATKERHEQIAEISRELKTLARELEIPIIALVQLNRSLENRDDKRPILSDIKDSGGIEQDADIVLFLYRGYIYQMRAEDNKIDKLKKEGKIEEAQELYLKVNEERRIHKQNGSIEEAEIIVAKNRNGATGTVYTRFNAPFTRYEDMPIDSHLEEGQETKVDYDIVTT” the value was “not failed”; for “MDHLLSGLATRLGQGPFVADRTGSYHLRIDGQSVLLLRQGDDLLLESPLEHAPLDPQRDQQGLLRALLSRVASWSRRYPQAIVLDADGRLLLQARLGLDGLDPERLERALAAQVGLLEALAPELEPLPRGLPPQAPVWRP”, “failed”.

Turning to “MDHQLSQHDIFISQDGQLQLTVAVDTETVWLTQAEICVLFDRERSVITKHINNVFKEGELERDSVCAIFARTADDGKTYQTQYFNLDVIISVGYRVKSKRGVQFRQWATNTLKQHLLQGYTLNQQRLVQRGIEFNQALALLSKTLTNQALINPDGQAVVNVIAEYARSWSLLQGYDEQSLTEITHKQQQMQPLALDEVLAAIAALKTNLIAKGEATDLFAQLRGNGLASSIATIEQGFGGEWFYPNVASRAAHLLYFIIKNHPFADGNKRTGSFLFLWYLQQNQHLLAKPVSEQINDTTLVALALLVAESLPDQKELMIRLIEHFILLKDSELEHHHHHH”, the protein production result was “not failed”. In the case of “MDIAELINHPELLLLVLAPLFFVCILLEWYLGDRRQKLPVSARYHAKEVLCNFSLAAMHQGTDILAGLLIAKLYLAIFGWKLFDIQMGPFTFVLLMVAQDFCYYWFHRASHRIRWMWAAHVVHHSSENMNFSTAFRQSLMYPFAGMWVFWLPLVILGFDPNWVVFVVLLSLGLQFFVHTQAVRKLGPLEWLFNTPSHHRVHHGRNPQYIDKNYAGILIIWDKLFGTFVPEEETVIYGITKPVNSFNPLKVTFSEWHDMFREVTTKGLSLSKRLGILFAPPASYQKDD” it was “failed”; in that of “MDIELPGFDIERELGEGAMATVYLATQRSLQRKVALKVMAAALAADPSFAERFLREGRTLARLSHPNTVTIHDIGNVGSCYYMAMEYLPNGTLKERIQQGLDPEQGLAYVRQVAAALGYAHSQGLVHRDVKPANILFRADGTAVLSDFGIAKSIEDNTQFTQVGFAVGTPSYMSPEQARGQEIDGRADLYALGVVLYEILTGKLPYNGKDSLSTALAHLTEPLPELPIEQGRYQDILRQLLAKDPAERFPTAGALIAALDRLAPSALEATQIRPLATPQGSPRASNPPPAEPAPLPPADLGGLQPVSIQLPPVTPSAGGATPPPPPPSQAAKPPSPPPPPLPPAKPRAGGSRTPLIAAAAAAVLLAIGGGAWWLLGSGDAPSAADPAPLGQTPADKPQQQTPVADAEQDGGERPLLMPGKKTLFQRVLTKPGAAISAEAGGPPRAGAVPAFSVLYVYARKQVGGSPWLRVGASSNGEGDGWLPASAVSDWKQSLVLKFTERSGRAPVMFLNSAEQVERLLGDTRAARDTLTQAVDHKGDPQVVAVEPNDRAIPQDQFYLLPIFDSKESFDADGQPAQLLEVASIDPGGSAAAPQAPGQAGQGGASGAASDTFRTGIVLVVDTSVSMQPYIDRVREVIDGLQRQIGERGDLDKVSFGLVGFRNNTDKTPGLEYVSKTLVPLQPGNDAQRFAELSSQVRATDVSSHSFNEDAFAGIMQAVDEMDWSPYAGRVVLLVTDAGALRKNDPLGRTQMNEAEVRQAALRKGVKIYALHLRTPAGKNNHGYAEQQYRSLTADANPKIADLYIPVAGGEVNAFGNTVKEIGTVFADLVHDAGNRKPQAPRFDAAPSVASKSAAIGYAMQMEFLGRRDPVRAPQVVTAWTADRDLTNPALPAFQVCVLLSKLQLNELQQSLKLIVDAAKRTQTSPKDFFQEIASASAYMSRDPAQLVKGSNLAQSGVLGEYLEGLPYRSKSLNMTQDLWLSLSVAEQQDFIDELESKIRLYETFHNDVANWVRFGDADAGDALYRVPLSTLP”, “failed”.
